One block for each molecule: values may come before it.
Assays:
[1] = system: GFP-14-3-3β and its binding proteins; assay: GFP-14-3-3β co-IP with LC-MS/MS label-free quantification, untreated versus PP1c-treated; design: species or system human; conditions: PP1 vs untreated; LFQ intensities, replicates 1-3
GFP-14-3-3β = GFP-14-3-3β co-IP with LC-MS/MS, untreated GFP-14-3-3β versus GFP control (14-3-3 interactome); type: binding, human; conditions: untreated vs GFP; LFQ intensities, replicates 1-3

B1: ABLIM1 (protein, UniProt O14639 1-778, looked up)
Actin-binding LIM protein 1: MPAFLGLKCLGKLCSSEKSKVTSSERTSARGSNRKRLIVEDRRVSGTSFTAHRRATITHLLYLCPKDYCPRGRVCNSVDPFVAHPQDPHHPSEKPVIHCHKCGEPCKGEVLRVQTKHFHIKCFTCKVCGCDLAQGGFFIKNGEYLCTLDYQRMYGTRCHGCGEFVEGEVVTALGKTYHPNCFACTICKRPFPPGDRVTFNGRDCLCQLCAQPMSSSPKETTFSSNCAGCGRDIKNGQALLALDKQWHLGCFKCKSCGKVLTGEYISKDGAPYCEKDYQGLFGVKCEACHQFITGKVLEAGDKHYHPSCARCSRCNQMFTEGEEMYLQGSTVWHPDCKQSTKTEEKLRPTRTSSESIYSRPGSSIPGSPGHTIYAKVDNEILDYKDLAAIPKVKAIYDIERPDLITYEPFYTSGYDDKQERQSLGESPRTLSPTPSAEGYQDVRDRMIHRSTSQGSINSPVYSRHSYTPTTSRSPQHFHRPGNEPSSGRNSPLPYRPDSRPLTPTYAQAPKHFHVPDQGINIYRKPPIYKQHAALAAQSKSSEDIIKFSKFPAAQAPDPSETPKIETDHWPGPPSFAVVGPDMKRRSSGREEDDEELLRRRQLQEEQLMKLNSGLGQLILKEEMEKESRERSSLLASRYDSPINSASHIPSSKTASLPGYGRNGLHRPVSTDFAQYNSYGDVSGGVRDYQTLPDGHMPAMRMDRGVSMPNMLEPKIFPYEMLMVTNRGRNKILREVDRTRLERHLAPEVFREIFGMSIQEFDRLPLWRRNDMKKKAKLF
- Difference (log2), PP1 vs untreated [1]: -1.4799 log2
- Difference (log2), untreated vs GFP (GFP-14-3-3β): 3.166 log2

B2: HNRNPA0 (protein, UniProt Q13151 1-305, looked up)
Heterogeneous nuclear …: MENSQLCKLFIGGLNVQTSESGLRGHFEAFGTLTDCVVVVNPQTKRSRCFGFVTYSNVEEADAAMAASPHAVDGNTVELKRAVSREDSARPGAHAKVKKLFVGGLKGDVAEGDLIEHFSQFGTVEKAEIIADKQSGKKRGFGFVYFQNHDAADKAAVVKFHPIQGHRVEVKKAVPKEDIYSGGGGGGSRSSRGGRGGRGRGGGRDQNGLSKGGGGGYNSYGGYGGGGGGGYNAYGGGGGGSSYGGSDYGNGFGGFGSYSQHQSSYGPMKSGGGGGGGGSSWGGRSNSGPYRGGYGGGGGYGGSSF
- Difference (log2), PP1 vs untreated [1]: -1.439 log2
- Difference (log2), untreated vs GFP (GFP-14-3-3β): 3.698 log2

B3: NOP2 (protein, UniProt P46087 1-812, looked up)
28S rRNA …: MGRKLDPTKEKRGPGRKARKQKGAETELVRFLPAVSDENSKRLSSRARKRAAKRRLGSVEAPKTNKSPEAKPLPGKLPKGISAGAVQTAGKKGPQSLFNAPRGKKRPAPGSDEEEEEEDSEEDGMVNHGDLWGSEDDADTVDDYGADSNSEDEEEGEALLPIERAARKQKAREAAAGIQWSEEETEDEEEEKEVTPESGPPKVEEADGGLQINVDEEPFVLPPAGEMEQDAQAPDLQRVHKRIQDIVGILRDFGAQREEGRSRSEYLNRLKKDLAIYYSYGDFLLGKLMDLFPLSELVEFLEANEVPRPVTLRTNTLKTRRRDLAQALINRGVNLDPLGKWSKTGLVVYDSSVPIGATPEYLAGHYMLQGASSMLPVMALAPQEHERILDMCCAPGGKTSYMAQLMKNTGVILANDANAERLKSVVGNLHRLGVTNTIISHYDGRQFPKVVGGFDRVLLDAPCSGTGVISKDPAVKTNKDEKDILRCAHLQKELLLSAIDSVNATSKTGGYLVYCTCSITVEENEWVVDYALKKRNVRLVPTGLDFGQEGFTRFRERRFHPSLRSTRRFYPHTHNMDGFFIAKFKKFSNSIPQSQTGNSETATPTNVDLPQVIPKSENSSQPAKKAKGAAKTKQQLQKQQHPKKASFQKLNGISKGADSELSTVPSVTKTQASSSFQDSSQPAGKAEGIREPKVTGKLKQRSPKLQSSKKVAFLRQNAPPKGTDTQTPAVLSPSKTQATLKPKDHHQPLGRAKGVEKQQLPEQPFEKAAFQKQNDTPKGPQPPTVSPIRSSRPPPAKRKKSQSRGNSQLLLS
- Difference (log2), PP1 vs untreated [1]: -1.5353 log2
- Difference (log2), untreated vs GFP (GFP-14-3-3β): 2.385 log2

B4: RIN1 (protein, UniProt Q13671 1-783, looked up)
Ras and Rab interactor 1: MESPGESGAGSPGAPSPSSFTTGHLAREKPAQDPLYDVPNASGGQAGGPQRPGRVVSLRERLLLTRPVWLQLQANAAAALHMLRTEPPGTFLVRKSNTRQCQALCMRLPEASGPSFVSSHYILESPGGVSLEGSELMFPDLVQLICAYCHTRDILLLPLQLPRAIHHAATHKELEAISHLGIEFWSSSLNIKAQRGPAGGPVLPQLKARSPQELDQGTGAALCFFNPLFPGDLGPTKREKFKRSFKVRVSTETSSPLSPPAVPPPPVPVLPGAVPSQTERLPPCQLLRRESSVGYRVPAGSGPSLPPMPSLQEVDCGSPSSSEEEGVPGSRGSPATSPHLGRRRPLLRSMSAAFCSLLAPERQVGRAAAALMQDRHTAAGQLVQDLLTQVRAGPEPQELQGIRQALSRARAMLSAELGPEKLLSPKRLEHVLEKSLHCSVLKPLRPILAARLRRRLAADGSLGRLAEGLRLARAQGPGAFGSHLSLPSPVELEQVRQKLLQLLRTYSPSAQVKRLLQACKLLYMALRTQEGEGAGADEFLPLLSLVLAHCDLPELLLEAEYMSELLEPSLLTGEGGYYLTSLSASLALLSGLGQAHTLPLSPVQELRRSLSLWEQRRLPATHCFQHLLRVAYQDPSSGCTSKTLAVPPEASIATLNQLCATKFRVTQPNTFGLFLYKEQGYHRLPPGALAHRLPTTGYLVYRRAEWPETQGAVTEEEGSGQSEARSRGEEQGCQGDGDAGVKASPRDIREQSETTAEGGQGQAQEGPAQPGEPEAEGSRAAEE
- Difference (log2), PP1 vs untreated [1]: -1.475 log2
- Difference (log2), untreated vs GFP (GFP-14-3-3β): 6.141 log2

B6: LMNB1 (protein, UniProt P20700 2-583, looked up)
Lamin-B1: ATATPVPPRMGSRAGGPTTPLSPTRLSRLQEKEELRELNDRLAVYIDKVRSLETENSALQLQVTEREEVRGRELTGLKALYETELADARRALDDTARERAKLQIELGKCKAEHDQLLLNYAKKESDLNGAQIKLREYEAALNSKDAALATALGDKKSLEGDLEDLKDQIAQLEASLAAAKKQLADETLLKVDLENRCQSLTEDLEFRKSMYEEEINETRRKHETRLVEVDSGRQIEYEYKLAQALHEMREQHDAQVRLYKEELEQTYHAKLENARLSSEMNTSTVNSAREELMESRMRIESLSSQLSNLQKESRACLERIQELEDLLAKEKDNSRRMLTDKEREMAEIRDQMQQQLNDYEQLLDVKLALDMEISAYRKLLEGEEERLKLSPSPSSRVTVSRASSSRSVRTTRGKRKRVDVEESEASSSVSISHSASATGNVCIEEIDVDGKFIRLKNTSEQDQPMGGWEMIRKIGDTSVSYKYTSRYVLKAGQTVTIWAANAGVTASPPTDLIWKNQNSWGTGEDVKVILKNSQGEEVAQRSTVFKTTIPEEEEEEEEAAGVVVEEELFHQQGTPRASNRSC
- Difference (log2), PP1 vs untreated [1]: -1.41 log2
- Difference (log2), untreated vs GFP (GFP-14-3-3β): 2.359 log2

More lines, main results first:

- Difference (log2), PP1 vs untreated [1]: -1.555 log2
B5: SH3PXD2A (protein, UniProt Q5TCZ1 1-1133, looked up)
SH3 and PX domain-containing …: MLAYCVQDATVVDVEKRRNPSKHYVYIINVTWSDSTSQTIYRRYSKFFDLQMQLLDKFPIEGGQKDPKQRIIPFLPGKILFRRSHIRDVAVKRLKPIDEYCRALVRLPPHISQCDEVFRFFEARPEDVNPPKEDYGSSKRKSVWLSSWAESPKKDVTGADATAEPMILEQYVVVSNYKKQENSELSLQAGEVVDVIEKNESGWWFVSTSEEQGWVPATYLEAQNGTRDDSDINTSKTGEVSKRRKAHLRRLDRRWTLGGMVNRQHSREEKYVTVQPYTSQSKDEIGFEKGVTVEVIRKNLEGWWYIRYLGKEGWAPASYLKKAKDDLPTRKKNLAGPVEIIGNIMEISNLLNKKASGDKETPPAEGEGHEAPIAKKEISLPILCNASNGSAVGVPDRTVSRLAQGSPAVARIAPQRAQISSPNLRTRPPPRRESSLGFQLPKPPEPPSVEVEYYTIAEFQSCISDGISFRGGQKAEVIDKNSGGWWYVQIGEKEGWAPASYIDKRKKPNLSRRTSTLTRPKVPPPAPPSKPKEAEEGPTGASESQDSPRKLKYEEPEYDIPAFGFDSEPELSEEPVEDRASGERRPAQPHRPSPASSLQRARFKVGESSEDVALEEETIYENEGFRPYAEDTLSARGSSGDSDSPGSSSLSLTRKNSPKSGSPKSSSLLKLKAEKNAQAEMGKNHSSASFSSSITINTTCCSSSSSSSSSLSKTSGDLKPRSASDAGIRGTPKVRAKKDADANAGLTSCPRAKPSVRPKPFLNRAESQSQEKMDISTLRRQLRPTGQLRGGLKGSKSEDSELPPQTASEAPSEGSRRSSSDLITLPATTPPCPTKKEWEGPATSYMTCSAYQKVQDSEISFPAGVEVQVLEKQESGWWYVRFGELEGWAPSHYLVLDENEQPDPSGKELDTVPAKGRQNEGKSDSLEKIERRVQALNTVNQSKKATPPIPSKPPGGFGKTSGTPAVKMRNGVRQVAVRPQSVFVSPPPKDNNLSCALRRNESLTATDGLRGVRRNSSFSTARSAAAEAKGRLAERAASQGSDSPLLPAQRNSIPVSPVRPKPIEKSQFIHNNLKDVYVSIADYEGDEETAGFQEGVSMEVLERNPNGWWYCQILDGVKPFKGWVPSNYLEKKN
- Difference (log2), untreated vs GFP (GFP-14-3-3β): 3.934 log2

- Difference (log2), PP1 vs untreated [1]: -1.506 log2
B7: ZAK (protein, UniProt Q9NYL2 2-800, looked up)
Mitogen-activated protein …: SSLGASFVQIKFDDLQFFENCGGGSFGSVYRAKWISQDKEVAVKKLLKIEKEAEILSVLSHRNIIQFYGVILEPPNYGIVTEYASLGSLYDYINSNRSEEMDMDHIMTWATDVAKGMHYLHMEAPVKVIHRDLKSRNVVIAADGVLKICDFGASRFHNHTTHMSLVGTFPWMAPEVIQSLPVSETCDTYSYGVVLWEMLTREVPFKGLEGLQVAWLVVEKNERLTIPSSCPRSFAELLHQCWEADAKKRPSFKQIISILESMSNDTSLPDKCNSFLHNKAEWRCEIEATLERLKKLERDLSFKEQELKERERRLKMWEQKLTEQSNTPLLPSFEIGAWTEDDVYCWVQQLVRKGDSSAEMSVYASLFKENNITGKRLLLLEEEDLKDMGIVSKGHIIHFKSAIEKLTHDYINLFHFPPLIKDSGGEPEENEEKIVNLELVFGFHLKPGTGPQDCKWKMYMEMDGDEIAITYIKDVTFNTNLPDAEILKMTKPPFVMEKWIVGIAKSQTVECTVTYESDVRTPKSTKHVHSIQWSRTKPQDEVKAVQLAIQTLFTNSDGNPGSRSDSSADCQWLDTLRMRQIASNTSLQRSQSNPILGSPFFSHFDGQDSYAAAVRRPQVPIKYQQITPVNQSRSSSPTQYGLTKNFSSLHLNSRDSGFSSGNTDTSSERGRYSDRSRNKYGRGSISLNSSPRGRYSGKSQHSTPSRGRYPGKFYRVSQSALNPHQSPDFKRSPRDLHQPNTIPGMPLHPETDSRASEEDSKVSEGGWTKVEYRKKPHRPSPAKTNKERARGDHRGWRNF
- Difference (log2), untreated vs GFP (GFP-14-3-3β): 2.661 log2

Source: article PMC7367873, “Dissecting the sequence determinants for dephosphorylation by the catalytic subunits of phosphatases PP1 and PP2A” (Nature Communications, 2020)
